From the supplement of paper PMC9170038 come the findings set out here.

Data set [1] has as its system MS2 coat protein. The data set can be described thus: apparent KD of MS2 coat protein; designed switch direction (-1 OFF switch, 1 ON switch): 1; higher = weaker reporter binding. The settings on record: Eterna round: R98. How it is done:
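RNA-MaP: designed FMN/MS2 RNA switches (84 nt design region) are transcribed on-chip within common flanks and titrated with SNAP-549-labelled MS2 coat protein (about 1-3000 nM) in 100 mM Tris pH 7.5, 80 mM KCl, 4 mM MgCl2, without or with 200 uM FMN. Median apparent KD per design; activation ratio = KD,OFF / KD,ON.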

For data set [2], the system named is MS2 coat protein. The data set can be described thus: apparent KD of MS2 coat protein, switch ON state; designed switch direction (-1 OFF switch, 1 ON switch): 1; higher = weaker reporter binding. The settings on record: FMN input: 0 or 200 uM; Eterna round: R93 (includes R88 designs). In outline:
(§1)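 Designed RNA switches, transcribed on-chip from Illumina sequencing clusters, were titrated with SNAP-549-labelled MS2 coat protein from 0.7 or 1.5 nM to 3 µM in twofold steps. The solution was 100 mM Tris-HCl pH 7.5, 80 mM KCl, 4 mM MgCl2, with constant ligand or without it. Apparent KD is the median over each design's normalised cluster binding-curve fits.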

Data set [3] has as its system MS2 coat protein. Nature of the data set: apparent KD of MS2 coat protein, switch OFF state (with FMN for OFF switches, without FMN for ON switches); designed switch direction (-1 OFF switch, 1 ON switch): 1; higher = weaker reporter binding. The settings on record: FMN input: 0 or 200 uM; Eterna round: R93 (includes R88 designs). In a few lines: as §1

Turning to “AAAACAUGAGGAUCACCCAUGUAAAGAUCGGUUAAUAGAAGUGAGGAUAUACAAAAUUUUAGGUAGUAGAAGGCACAGGGUACA [JR_SSNG3_Sub046]”, the “apparent KD of MS2 coat protein” value in the data set on MS2 coat protein [1] (input ligand: FMN 200 uM) was found to be 31.5 nM; in the data set with MS2 coat protein [1] (input ligand: none) it was 33 nM.
Taken in the same sequence, the figures for “AAAACAUGAGGAUCACCCAUGUAAAGAUCGGUUAAUAGAAGUGAGGAUAUGCUUAAAAUAAGGUAGCAGAAGGCACUGGGUACA [JR_SSNG3_Sub040]” were 27.8 nM and 23.4 nM.
In the case of “AAAACAUGAGGAUCACCCAUGUAUUGAACGGUUAAUAAAAGUGAGGAUAUACAAAAUUUUAUAUAGUAGAAGGCACUGGGUACA [JR_SSNG3_Sub009]”, the “apparent KD of MS2 coat protein” value was 20.8 nM in the data set on MS2 coat protein [1] (input ligand: FMN 200 uM) and 21.2 nM in the data set on MS2 coat protein [1] (input ligand: none).
Taken in the same sequence, the figures for “AAAUAAAAUAUAGGAUAUGGAAACAUGAGGAUCACCCAUGUAUGAUAAGAUAAAUAAUGAUAUAGCCAGAAGGAUAAAAUAUAA [LRO006_SS NG 2]” were 42.7 nM and 33 nM.
Taken in the same sequence, the figures for “ACUGUCGCGUGAGGAUAUGGUCUGCAGUGCUGACCAGAAGGCAUGUCGAUAGACAUGAGGAUCACCCAUGUGGUUAGGGCGGAA [salish99_SSNG1_R02_019]” were 194 nM and 298 nM.
For “AGAACAUGAGGAUCACCCAUGUGAAGGUCGGCGUAUAAGGGUGAGGAUAUGCUUAAAAUAAGGAAGCAGAAGGUACUUGGUGCG [SameState #80 NG3]”, in that order: 75.3 nM and 165 nM.
Turning to “AUUACAUGAGGAUCACCCAUGUACAGAACGUUUCAUUAAAGUGAGGAUAUACGAAAUUUAAAAGCGUAGAAGGCACUGGGUACA [SameState #43 NG3]”, the “apparent KD of MS2 coat protein” value in the data set on MS2 coat protein [1] (input ligand: FMN 200 uM) was found to be 24.2 nM; in the data set with MS2 coat protein [1] (input ligand: none), 27.8 nM.
As to “GCAUACAUUCGAGGAUAUCGGUGAACAAAUUAGCGAGAAGGCGAUAUAAUUUUUAAACUUAUUGACAUGAGGAUCACCCAUGUA [JR_SSNG1_Sub011]”, the “apparent KD of MS2 coat protein” value in the data set with MS2 coat protein [1] (input ligand: FMN 200 uM) stood at 20.5 nM; with MS2 coat protein [1] (input ligand: none) it was 24.8 nM.
Taken in the same sequence, the figures for “GGACAUGUCGUUUACAUGAGGAUCACCCAUGUCGAUGGACAUGAGGAUAUGGAUCCGAAUCGGAUCCAGAAGGCAUGCAUGUCC [SameState #7 NG3]” were 17.9 nM and 45.2 nM.
Taken in the same sequence, the figures for “GGACGUCACAUAAACAUGAGGAUCACCCAUGUCAAAAGACAUGAGGAUAUGGAUGCGAAACGCAUCCAGAAGGCAUGGACGUCC [EliMod 4 - Jieux - Same State NG 3]” were 57.3 nM and 728 nM.
As for “GGACUCACUUGAGGAUAUCGAGUGGAUAACACUCGAGAAGGCAGGGAAACCUGAGGAUCACCCAGGUAAGAGUCCAAUAAUAAA [Same State NG1 - A3C, U17G Submission 2D]”, the “apparent KD of MS2 coat protein” value with MS2 coat protein [1] (input ligand: FMN 200 uM) was determined as 19.9 nM; in the data set on MS2 coat protein [1] (input ligand: none), 42.1 nM.
Regarding “GGAGACCUCACAGGAUAUGCUGGACUUUGUCCAGCAGAAGGGUGAAAACAUGAGGAUCACCCAUGUAUGGUCUCCAAAUUUAAU [Denovo 57]”, the “apparent KD of MS2 coat protein” value amounted to 30.4 nM in the data set on MS2 coat protein [1] (input ligand: FMN 200 uM) and 632 nM in the data set with MS2 coat protein [1] (input ligand: none).
Consider “GGUUUCAGGAUAGGAUAUGGCGUGACAUGGCGGCCAGAAGGAUCCUCGGGAACAUGAGGAUCACCCAUGUGACCGUGUCGAGUC [Biveedve]”, for which the “apparent KD of MS2 coat protein” value in the data set with MS2 coat protein [1] (input ligand: FMN 200 uM) stood at 190 nM; in the data set with MS2 coat protein [1] (input ligand: none), 741 nM.
On to “GUAGCAUACCGAGGAUAUUCUCCGGAAAACCGGACAUGAGGAUCACCCAUGUGGCGAAAGCCUUGGGAGAAGGCGGAAUGCUAC [Xeinanis 75 29]”, for which the “apparent KD of MS2 coat protein” value turned out to be 18.6 nM with MS2 coat protein [1] (input ligand: FMN 200 uM) and 34.4 nM in the data set with MS2 coat protein [1] (input ligand: none).
Taken in the same sequence, the figures for “GUAGCUAUCGCAGGAUAUCCUCAGGCGAAAGCCACAUGAGGAUCACCCAUGUAAAUAAAGAAUUUGGAGAAGGGCGAUAGCUAC [jl-sng2-2.34 Eli mod]” were 24.7 nM and 374 nM.
For “UAGAAGUGGUGAGGAUAUGAAUACGGCUCAUUAUCCUACAUGAGGAUCACCCAUGUGGGUGGUCGUCAGAAGGCACUGCUAUCG [Edretirige]”, in that order: 181 nM and 32.3 nM.
For the sequence “UAGAUCACCGAAGGAUAUGGGCAGAGUCCCGCUACAUGAGGAUCACCCAUGUCAGUCGGUCGUUUUCAGAAGGUCGGAAUGAUU [Zadi]”, the “apparent KD of MS2 coat protein” value was 57.1 nM with MS2 coat protein [1] (input ligand: FMN 200 uM) and 19.4 nM in the data set on MS2 coat protein [1] (input ligand: none).
Take “UAGGGAACAGGGUAGGAUAUGCAUGGUCGUACAUGAGGAUCACCCAUGUAGCCUAGAAAAUAAAUGCAGAAGGGCCAAAAGAAAA [Raritea]”: the “apparent KD of MS2 coat protein” value in the data set with MS2 coat protein [2] stood at 39.8 nM; in the data set with MS2 coat protein [3] it was 67.1 nM.
For “UAUUAUUACACGAAGGAUAUCGAUAAUAGUACAUGAGGAUCACCCAUGUUCAAAUCAUUUUAGUACGAGAAGGUCGAGGGUAAAG [JR_SS002_Sub710]”, in that order: 19.4 nM and 23.4 nM.
For the sequence “UCACUCAAGUUAGGAUAUGGAUCGGAAAACGAUCCAGAAGGAACAUGAAAACAUGAGCAUCAGCCAUGUUCCAGAAACGAGUGA [SameSame 4 - Jieux - Same State NG 1]”, the “apparent KD of MS2 coat protein” value in the data set with MS2 coat protein [1] (input ligand: FMN 200 uM) was 23.6 nM.
“UCUGCUAUCGCAGGAUAUUACAUGGGAAAGAAUACAUGAGGAUCACCCAUGUAAAAGAUCAUAAAUAAGAAGGGCGAUAGCAGA [Lame State 7 - Jieux - Same State NG 2]”: the “apparent KD of MS2 coat protein” value was found to be 116 nM in the data set with MS2 coat protein [1] (input ligand: FMN 200 uM) and 1530 nM in the data set with MS2 coat protein [1] (input ligand: none).
In the case of “UGCAGGAAGAGAGAGGAUAUCCAAAGGAAAACAUGAGGAUCACCCAUGUAAAAGGUAGGAAAUUGGGAGAAGGCUCAAGAGAGAG [salish99-ss2-098]”, the “apparent KD of MS2 coat protein” value in the data set on MS2 coat protein [2] is 33.1 nM; with MS2 coat protein [3], 28.3 nM.
Taken in the same sequence, the figures for “UGCCAAUUGGCACAGGAUAUGAGCAUGCUCACAUGAGGAUCACCCAUGUGAUUACCAACGCAAUAUCAGAAGGGUGCCCUCGUCA [Relageor]” were 32.1 nM and 50.4 nM.
“UGGAGACAUGAGGAUCACCCAUGUGAGAAGAGGCGAGGAUAUCGAAAAAAAAAAAAAAAACGAGAAGGCGCGAGAU [salish99-SS1-008]”: the entries for the “apparent KD of MS2 coat protein” value in the data set on MS2 coat protein [2] and with MS2 coat protein [3] were 25.9 nM and 22.1 nM, respectively.
Taken in the same sequence, the figures for “UGGAGACAUGAGGAUCACCCAUGUGAGAAGAGGCGAGGAUAUCGAAAGAAAGAAGAGAAACGAGAAGGCGCGAGCC [salish99-SS1-048]” were 36.2 nM and 49.9 nM.
For “UGGAGACAUGAGGAUCACCCAUGUGAGAAGAGGCGAGGAUAUCGAAAGAAAGAAGAGAAACGAGAAGGCGCGAGGC [salish99-SS1-047]”, in that order: 43.3 nM and 27.6 nM.
In the case of “UGGAGACAUGAGGAUCACCCAUGUGAGAAGAGGCGAGGAUAUCGAAAGAAAGAAGAGAAACGAGAAGGCGCGAGUU [salish99-SS1-035]”, the figures for the “apparent KD of MS2 coat protein” value with MS2 coat protein [2] and with MS2 coat protein [3] were 27.2 nM and 41.6 nM, respectively.
“UUACAGUGCGGGUAGGAUAUGUAGGGUGGUACAUGAGGAUCACCCAUGUAUCCACCCUUCGACCGGCAGAAGGGCCUGUCACUAC [Atarzale]”: the figures for the “apparent KD of MS2 coat protein” value in the data set with MS2 coat protein [2] and in the data set with MS2 coat protein [3] were 12 nM and 12.8 nM, respectively.
In the case of “UUACGUCCCGUUUACAUGAGGAUCACCCAUGUCGAAAGACAUGAGGAUAUGCUACCUAGUUGGUAGCAGAAGGCGUGGACGUCG [salish99_SSNG3_r02_005]”, the “apparent KD of MS2 coat protein” value in the data set on MS2 coat protein [1] (input ligand: FMN 200 uM) amounted to 87.1 nM; with MS2 coat protein [1] (input ligand: none), 121 nM.
